Changes are numbered by the printed parent chain.
T1: cynomolgus monkey (nonhuman primate) IL-13 (Macaca fascicularis)
T1 chain: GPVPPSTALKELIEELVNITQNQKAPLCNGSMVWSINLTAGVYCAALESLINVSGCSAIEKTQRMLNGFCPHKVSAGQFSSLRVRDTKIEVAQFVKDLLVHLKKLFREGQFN

B1: HC1 (heavy-chain variant of Ab731 with the parental light chain), membrane-tethered on the cell surface (antibody, V domains shown)
VH: EVQLLESGGGLVQPGGSLRLSCAASGFTFSSYAMSWVRQAPGKGLEWVSAFSGWDVSTYYADSVKGRFTISRDNSKNTLYLQMNSLRAEDTAVYYCVQDGLGPYFYNYGMDVWGQGTTVTVSS
VL: SYELTQPPSVSVSPGQTASITCSGDKLGDKYTCWFQQKPGQSPVLVIYHDSKRPSGIPERFSGSNSGDTATLTISGTQAMDEADYYCQAWDSSTYVFGTGTKVTVL
B2: HC2 (heavy-chain variant of Ab731 with the parental light chain), membrane-tethered on the cell surface (antibody, V domains shown)
VH: B1 VH with M34G, W54S, D55G, V56G
VL: B1 VL
B3: antibody 731 (antibody, V domains shown)
VH: B1 VH with W54S, D55G, V56G
VL: B1 VL
B4: MMAb1 (LC1/HC2) (antibody, V domains shown)
VH: B1 VH with M34G, W54S, D55G, V56G
VL: B1 VL with T32S, C33F
B5: MMAb2 (LC2/HC2) (antibody, V domains shown)
VH: B1 VH with M34G, W54S, D55G, V56G
VL: B1 VL with T32A, C33F
B6: MMAb3 (LC1/HC1) (antibody, V domains shown)
VH: B1 VH
VL: B1 VL with T32S, C33F

Biological target: T1, cynomolgus monkey (nonhuman primate) …
Assay: flow cytometry on cells

B1: binds.
B2: binds.

Biological target: human interleukin (IL)-13 (Homo sapiens, UniProt P35225)
Assay: KinExA

Sequence of human interleukin (IL)-13 (P35225 25-146): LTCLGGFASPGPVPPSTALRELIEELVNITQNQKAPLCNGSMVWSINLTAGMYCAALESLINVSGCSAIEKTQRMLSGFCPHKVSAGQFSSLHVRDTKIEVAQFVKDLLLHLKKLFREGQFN

First: B3
Second: B4
The Kd of the first is 6.4-fold higher: 1.9 pM for the first, 0.295 pM for the second.

First: B5
Second: B6
The Kd of the first is 4.2-fold higher: 0.142 pM for the first, 0.034 pM for the second. The second binds more tightly here.

Biological target: T1, cynomolgus monkey (nonhuman primate) …
Assay: KinExA

Compared with B3, B4 is 190-fold lower in Kd: 3550 pM for the first, 18.7 pM for the second.

First: B5
Second: B6
The Kd of the first is 2.4-fold higher: 12.4 pM for the first, 5.1 pM for the second. The second binds more tightly here.

From publication PMC8808179 (The Journal of Biological Chemistry, 2021)
